The record followed here is article PMC4476739.

The term Kd denotes the constant that tells how readily two partners part at equilibrium. Usually stoichiometry N stands for the number of molecules, sites or subunits per partner or assembly.

Assay [1] has as its target DS-Cav1 1-C, foldon removed (respiratory syncytial virus) (UniProt P03420). The assay is described as follows: BLI; fortéBio Octet Red384; RSV F variant captured on motavizumab IgG loaded on anti-human Fc probes; Fab in solution 0.007 to 0.5 μM; 30°C; PBS + 1% BSA; 1:1 fit. (Biolayer interferometry detects binding as a change in optical thickness at a sensor tip.)
In assay [2] the target is RSV F DS-Cav1 with C-terminal T4 fibritin foldon (respiratory syncytial virus | bacteriophage T4) (UniProt P03420). In words: SEC; S200 size-exclusion chromatography of purified RSV F variants, before or after removal of the foldon with thrombin; PBS.
Assay [3] addresses RSV F DS-Cav1 with a thrombin cleavage site between RSV F and the foldon, before cleavage (respiratory syncytial virus | bacteriophage T4) (UniProt P03420). Described as above.
The target in assay [4] is DS-Cav1, 505-… (design without foldon) (respiratory syncytial virus) (UniProt P03420). The assay is described as follows: ELISA; D25 ELISA on 293T transient expression culture supernatants, 96-well microtiter plate format. On the technique in general: In an ELISA, binding on a coated surface is turned into a signal by an enzyme label.

For the substance D25 antigen binding fragment (Fab), the Kd in assay [1] was determined as 0.32 nM.

In the case of “RSV F DS-Cav1 with C-terminal T4 fibritin foldon (from UniProt P03420 26-109; P03420 137-511) (domain or fragment)”, the stoichiometry N in assay [2] was 3.

Regarding “RSV F DS-Cav1 with a thrombin cleavage site between RSV F and the foldon, before cleavage (from UniProt P03420 26-109; P03420 137-511) (domain or fragment)”, in assay [3], the stoichiometry N was determined as 3.

Turning to D25 antibody as used in the ELISA, the D25 ELISA binding titer (OD) in assay [4] is over 2 OD.
